Experimental data as given in patent US20030199040A1.

Experiments:
[1] = target: mIL-18 (purchased from PeproTech) (murine (printed as mIL-18)) (UniProt P70380); test: cell-based or functional assay
[2] = target: mAcPL and mIL-1Rrp1 cotransfected on cells (COS7 or S49.1) (murine) (UniProt Q61098); test: cell-based or functional assay
Chain of mAcPL and mIL-1Rrp1 cotransfected on cells (COS7 or S49.1) (murine) (Q61098 19-537, chain 1 of 2): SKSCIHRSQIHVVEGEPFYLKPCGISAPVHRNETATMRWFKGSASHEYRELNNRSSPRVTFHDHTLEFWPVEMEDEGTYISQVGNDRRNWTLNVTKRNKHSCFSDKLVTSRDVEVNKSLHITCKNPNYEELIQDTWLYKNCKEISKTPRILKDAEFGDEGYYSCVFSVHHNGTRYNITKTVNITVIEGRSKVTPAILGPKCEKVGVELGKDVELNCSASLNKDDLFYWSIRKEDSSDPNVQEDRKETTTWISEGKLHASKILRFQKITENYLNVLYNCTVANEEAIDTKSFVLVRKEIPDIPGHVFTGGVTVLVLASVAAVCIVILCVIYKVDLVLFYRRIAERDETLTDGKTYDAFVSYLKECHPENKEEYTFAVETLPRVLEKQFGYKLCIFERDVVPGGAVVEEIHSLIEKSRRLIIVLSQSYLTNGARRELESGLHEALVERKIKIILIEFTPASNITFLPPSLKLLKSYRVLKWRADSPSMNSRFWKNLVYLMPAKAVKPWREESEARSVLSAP
Chain of mAcPL and mIL-1Rrp1 cotransfected on cells (COS7 or S49.1) (murine) (chain, as listed by the source, chain 2 of 2): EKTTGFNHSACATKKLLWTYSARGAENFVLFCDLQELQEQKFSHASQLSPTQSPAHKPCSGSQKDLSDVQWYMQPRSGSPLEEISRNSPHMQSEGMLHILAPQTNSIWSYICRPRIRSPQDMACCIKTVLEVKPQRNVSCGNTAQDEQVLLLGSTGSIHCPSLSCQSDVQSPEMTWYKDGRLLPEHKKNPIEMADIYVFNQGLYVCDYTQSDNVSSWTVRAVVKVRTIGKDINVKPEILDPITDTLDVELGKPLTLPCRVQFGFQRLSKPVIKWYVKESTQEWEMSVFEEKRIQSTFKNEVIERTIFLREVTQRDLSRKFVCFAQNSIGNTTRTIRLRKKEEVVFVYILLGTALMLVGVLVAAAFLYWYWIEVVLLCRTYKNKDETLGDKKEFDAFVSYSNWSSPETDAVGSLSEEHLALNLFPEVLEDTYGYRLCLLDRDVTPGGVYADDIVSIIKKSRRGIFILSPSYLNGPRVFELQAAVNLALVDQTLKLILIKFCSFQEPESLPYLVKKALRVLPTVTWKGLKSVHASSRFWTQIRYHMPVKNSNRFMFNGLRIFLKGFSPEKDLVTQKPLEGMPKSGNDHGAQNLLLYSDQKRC

Chain of mIL-18 (purchased from PeproTech) (murine (printed as mIL-18)) (P70380 36-192 limits assumed): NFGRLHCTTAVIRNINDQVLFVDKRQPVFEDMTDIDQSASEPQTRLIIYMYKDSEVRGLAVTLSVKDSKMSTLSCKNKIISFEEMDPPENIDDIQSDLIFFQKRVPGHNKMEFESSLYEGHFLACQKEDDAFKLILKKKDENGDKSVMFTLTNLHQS

Row | inhibition of mIL-18 induced NFκB-luciferase activity in Cos7 cells transfected with mIL-1Rrp1 and mAcPL (10 ng/ml mIL-18 preincubated with the protein) [1] [%] | luciferase activity (RLU) at 20 ug/ml and 50 ug/ml of the protein mixture; uninduced cells 3×10e3 RLU, mIL-18 without receptor-Fc 25×10e3 RLU [1] [RLU] | increase in NFκB DNA binding activity (NFκB-Luc luciferase reporter), COS cells, 40 ng/mL IL-18 for 4 hours [2] [fold] | increase in NFκB DNA binding activity (NFκB-Luc luciferase reporter), S49.1 cells, 40 ng/mL IL-18 for 4 hours [2] [fold] | Substance
1 | 87 | 6000 | – | – | heterogeneous mIL-1Rrp1-Fc+mAcPL-Fc protein mixture (homodimers of mIL-1Rrp1-Fc, homodimers of mAcPL-Fc, and heterodimeric mIL-1Rrp1-Fc/mAcPL-Fc molecules) (from UniProt Q61098 20-322; Q9Z2B1 20-356) (Fc fusion)
2 | – | – | 10 | 300 | mIL-18 (purchased from PeproTech) (from UniProt P70380 36-192) (ligand)
